Source: paper PMC12604781 (PLOS Pathogens, 2025)

Molecular target: SUMO-PRV peptide AB (pseudorabies virus (PRV))
Experiment: ITC

Question: For “pcGAS^CT (C-terminus, catalytic domain of porcine cGAS) (domain or fragment)”, which Kd is on record?
Answer: The Kd was 2920 nM.
